From paper PMC9526445

Target: SpPks1 (sea urchin polyketide synthase, Strongylocentrotus purpuratus) (Strongylocentrotus purpuratus)
Assay: SEC

SpPks1 (sea urchin polyketide synthase, Strongylocentrotus purpuratus) (enzyme)
stoichiometry N: 2
